Tested on: MS2 coat protein
Assay: apparent KD of MS2 coat protein; designed switch direction (-1 OFF switch, 1 ON switch): 1; higher = weaker reporter binding
Method in brief: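 Apparent KD, taken as the median over clusters for each design, was obtained by curve-fitting normalised cluster fluorescence. Designed RNA switches had been transcribed on Illumina chips by stalled E. coli RNA polymerase and titrated with SNAP-549-labelled MS2 coat protein, doubling from 0.7 or 1.5 nM to 3 µM.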

[1] = input ligand: microRNA oligo, concentration not stated
[2] = Eterna round: R95, input ligand: FMN 200 uM
[3] = Eterna round: R95, input ligand: microRNA oligo, concentration not stated
[4] = Eterna round: R95, input ligand: none

Row | Sequence | apparent KD of MS2 coat protein (input ligand: FMN 200 uM) | apparent KD of MS2 coat protein [1] | apparent KD of MS2 coat protein (input ligand: none) | apparent KD of MS2 coat protein [2] | apparent KD of MS2 coat protein [3] | apparent KD of MS2 coat protein [4]
1 | AAAAUGGUAUGUUACAUGAGGAUCACCCAUGUACUCUAAUCUGAGGAUAUGGGAAUGAAGAAGAACCAGAAGGCAGACAUCCAA [AK SSNG3-V2-23] (Eterna round: R96, puzzle: Same State NG 3) | 258 nM | 91.8 nM | 104 nM |  |  | 
2 | UUUAGUUGCGGGCAGGAUAUGUAUUAAAAUACAUGAGGAUCACCCAUGUGAGGCCGAAAAGGCCUACAGAAGGGCCAAACGCGAC [Laonerce - 23] (puzzle: Same State 2) |  |  |  | 14.4 nM | 84.5 nM | 117 nM
3 | UCUCUUAUCGUAGGAUAUGUAGGAUAUGUACAUGAGGAUCACCCAUGUCUACCAGAGACAGAAGGACAGAAGGACGAACCACUC [pwkr ssNG2 2FMN 1F5s.4] (Eterna round: R96, puzzle: Same State NG 2) | 43.4 nM | 51.7 nM | 80.7 nM |  |  | 
4 | UAAGUAUGUUGAGGAUAUUAUGUUUGGUGAGAUGACAUGAGGAUCACCCAUGUGUUAUCAGUUCUUAAGAAGGCAACAUACUUA [JR_SSNG2_Sub092] (Eterna round: R96, puzzle: Same State NG 2) |  | 20 nM |  |  |  | 
5 | AAAAAACAUGAGGAUCACCCAUGUCAAAAGACAUGAGGAUAUGUGCAAAUAAAAUAAGAAACAGAAGGCAUGAAAA [salish99_ss1_r3_102] (puzzle: Same State 1) |  |  |  | 69.1 nM | 210 nM | 229 nM
6 | GUUACAUGAGGAUCACCCAUGUAUGUGUGGGAGUAAGUGUCUUAGGAUAUCUAGAAUUUAAUUUAAGAGAAGGAAGAUUGUUGU [JMF's solution 49] (Eterna round: R96, puzzle: Same State NG 3) | 104 nM | 61 nM | 83 nM |  |  | 
7 | AAAGGAUGAUGUUACAUGAGGAUCACCCAUGUAGUGAUAACUAAGGAUAUCUGUUAAAUUAAUUAAGAGAAGGUAGGAUCAUUA [AK SSNG3-V2-8.1] (Eterna round: R96, puzzle: Same State NG 3) | 43.5 nM | 45.8 nM | 53.2 nM |  |  | 
8 | UGGUACAUGGGAGGAUAUGGGCAUGAGACAUGAGGAUCACCCAUGUAUUAUAAGCCGAAAGGCAUCUAGAAGGCCCAUGUACCU [JL SSNG1 3.84] (Eterna round: R96, puzzle: Same State NG 2) | 14.2 nM | 68.3 nM | 92.4 nM |  |  | 
9 | GGAGCCGGUACUGAGGAUAUUCAUAUUAAAACAUGAGGAUCACCCAUGUAGGCCGGAAGGCCUUGGGAGAAGGCAGACCAGCUCG [Atgexeedri - 7] (puzzle: Same State 2) |  |  |  | 23.1 nM | 255 nM | 441 nM
10 | GCUCGUAUCACAGCCAACAUGAGGAUCACCCAUGUAUGUUGGUAGGAUAUCUAUAUUAAGGAUAUAGAGAAGGGCCGAACGAGC [SameState NG3 #11] (Eterna round: R96, puzzle: Same State NG 3) | 121 nM | 126 nM | 145 nM |  |  | 
11 | ACCCAAAGUAUAUGGGAACAAGCUUUUUAACAUGAGGAUCACCCAUGUGCUCGUCUUAUAAGCAGUCGAAAGACUGC [Sensor 100 - 7] (puzzle: Sensor for hsa-mir-208a) |  |  |  | 65.1 nM |  | 69 nM
12 | CGCAUCCUUGUUACAUGAGGAUCACCCAUGUUUUCGAGUGGAGAGGAUAUCGUAACAGUAUUUUUCGAGAAGGCUCUAUAGUUU [JR_SSNG3_Sub080] (Eterna round: R96, puzzle: Same State NG 3) | 41.7 nM | 37.6 nM | 56.9 nM |  |  | 
13 | AUAUAACAUGAGGAUCACCCAUGUCAACAAAGUCGAGGAUAUGGGCAAAUAAAAUAAGAACCAGAAGGCGAAUAAU [salish99_ss1_r3_047] (Eterna round: R96, puzzle: Same State 1) |  | 189 nM |  |  |  | 

Source: the supplement of paper PMC9170038
